From patent publication US20200317769A1 (published 2020)
Residue numbers refer to the chain shown, from its start. Names may count otherwise.

B1: ID38F (VHH)
VHH: DVQLVESGGGLVQPGGSLKLSCAASGFDFSSHWMYWVRQAPGKELEWLSEINTNGLITHYGDSVKGRFTVSRNNAANKMYLELTRLEPEDTALYYCARNQHGLNKGQGTQVTVSS
notes: Q65B1 with N-terminal DVQLV, K59H and K101H; no His-tag; also called ID38F (S. cerevisiae-produced)
B2: Q65B1 (VHH, not shown: small tags and cut ends)
VHH: B1 VHH with D1E, H59K, H101K
notes: Family 1; purified from E. coli; parent of the ID series
B3: Q65A3 (VHH, not shown: small tags and cut ends)
VHH: EVQLVESGGGLVQPGGSLRPSCTTSGLDFGIHWMYWFRQAPGKELEWVAEINTNALITKYADSVKGRFTISRDNAKNTLFLQMNDLKSEDTAVYYCSNTQNGAAKGQGVQVTVSS
notes: Family 2; purified from E. coli
B4: Q65C7 (VHH, not shown: small tags and cut ends)
VHH: EVQLVESGGGLVQPGRSLRLSCTASGFDFSSHWMYWVRQAPGKGLEWVSEINTNGLITKYADFVKGRFTVSRDNAANTLYLEITRLEPEDTALYYCARNQKGLNKGQGTQVTVSS
notes: Family 1; purified from E. coli
B5: Q65D1 (VHH, not shown: small tags and cut ends)
VHH: B4 VHH with R16G, S30D, S31N, Y35C, E82Q, E87K
notes: as for B4
B6: Q65D3 (VHH, not shown: small tags and cut ends)
VHH: B4 VHH with R16G, T23V, F63S, V64T, T78M, Y80N, I83M, R85S, Q100E, K101R
notes: as for B4
B7: Q65E12 (VHH, not shown: small tags and cut ends)
VHH: EVQLVESGGGLVQPGGSLRLSCSASGFDFSIHWMYWVRQAPGKELEWVAEINTNGLITLYADSVKGRFTASRDNAKNALFLQMNDLKFEDTAVYYCAKSRNGAAGGQGTQVTVSS
notes: as for B3
B8: Q65F6 (VHH, not shown: small tags and cut ends)
VHH: B7 VHH with S23T, S30G, A61S, K65R, K76N, G105K
notes: as for B3
B9: Q62E10 (VHH, not shown: small tags and cut ends)
VHH: B3 VHH with E1Q, P20L
notes: as for B3
B10: Q62F11 (VHH, not shown: small tags and cut ends)
VHH: QVQLVESGGGLVQPGGSLRLSCAASGFSFSDYVMGWFRQAPGKEREFVGFIRWDGLVTRYADAVKGRFTISRDNARNTLSLQTIGLLAEDTAVYYCAASGGGSGPVNAGSYEYWGQGTQVTVSS
notes: Neither Family 1 nor Family 2; purified from E. coli
B11: Q62F2 (VHH, not shown: small tags and cut ends)
VHH: B4 VHH with E1Q, R16G, T23A, S30N, K59N, A61V, F63S, I83M, R85S, E87K
notes: as for B4
B12: Q62F10 (VHH, not shown: small tags and cut ends)
VHH: EVQLVESGGGLVQPGGSLRLSCVASGFDFNIHWMYWVRQAPGKELEWVAEINTNGLITVYPDSVKGRFTISRDNAKNTLFLQMNNLKFEDTAVYYCTNTQNGKTKGQGTQVTVSS
notes: as for B3
B13: ID22F (VHH)
chain: EVQLVESGGGLVQPGGSLKLSCAASGFDFSSHWMYWVRQAPGKELEWLSEINTNGLITKYGDSVKGRFTVSRNNAANKMYLELTRLEPEDTALYYCARNQKGLNKGQGTQVTVSSGGGGSGGGGSGGGGSGGGGSGGGGSGGGGSEVQLVESGGGLVQPGGSLKLSCAASGFDFSSHWMYWVRQAPGKELEWLSEINTNGLITKYGDSVKGRFTVSRNNAANKMYLELTRLEPEDTALYYCARNQKGLNKGQGTQVTVSS
B14: ID34F (VHH)
VHH: B1 VHH with D1E
B15: ID8F-EV (VHH, not shown: small tags and cut ends)
VHH: B1 VHH with D1E, H101K
B16: ID9F-EV (VHH)
VHH: B1 VHH with D1E, H59K, K65H, H101K
notes: Q65B1 monomer mutant with His-tag; not shown: C-terminal His-tag (c-myc-6His or Flag-6His)
B17: ID13F-EV (VHH)
VHH: B1 VHH with D1E, H59K
notes: as for B16
B18: ID15F-EV (VHH)
VHH: B1 VHH with D1E, H59K, K105H
notes: as for B16

target: T1, soluble human TNF-alpha (human, UniProt P01375 77-233); assay: cell-based or functional assay
T1 sequence (P01375 77-233 limits assumed): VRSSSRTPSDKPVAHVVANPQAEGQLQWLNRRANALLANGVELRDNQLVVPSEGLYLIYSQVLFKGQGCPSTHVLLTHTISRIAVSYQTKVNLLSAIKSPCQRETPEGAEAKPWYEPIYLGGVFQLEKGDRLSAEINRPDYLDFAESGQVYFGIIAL

Row | Binder | EC50 (nM), neutralisation of human soluble TNF-alpha-induced cytotoxicity in L929 cells
1 | B1 | 0.127 nM

target: T1, soluble human TNF-alpha; assay: competition ELISA: VHH mixed with TNF-alpha 2.5 ng/ml, binding to coated hTNFR1
Description: Plate was washed in PBST using a plate washer and blocked for 1 hour in 200 ul 1% BSA per well. A threefold dilution series beginning at 30 nM for each antibody was incubated with 2.5 ng/ml TNF-alpha for 1 hour, 50 ul/well of which was then added to the washed plate and incubated for 5 hours. The plate was washed and incubated with 50 ul/well of a 1/1000 dilution of biotinylated rabbit alpha-hTNF (Peprotech P31AB7) in 1% BSA and incubated overnight at 4 degrees C. The plate was washed and incubated with 50 ul/well of a 1/1000 dilution of mAvidin HRP in 1% BSA for 1 hour before a final wash and incubation with 100 ul/well TMB substrate. The reaction was stopped after 20 minutes with 50 ul/well 0.5 M H2504 and absorbance was read at 450 nm. EC50 values were calculated from ELISA data in GraphPad Prism.

Row | Binder | EC50
2 | B1 | 0.61 nM

target: T2, soluble cynomolgus monkey TNF-alpha (cynomolgus monkey, UniProt P79337 77-233); assay: cell-based or functional assay
T2 sequence (P79337 77-233 limits assumed): as the sequence (P01375 77-233 limits assumed) above, with L37V, R44T, T72N, R138L counted along it

Row | Binder | Inhibition of cynomolgus TNF-induced L929 cell cytotoxicity EC50
3 | B2 | 0.01 nM
4 | B3 | 0.04 nM
5 | B4 | 0.03 nM
6 | B5 | 0.06 nM
7 | B6 | 0.1 nM
8 | B7 | 4 nM
9 | B8 | 1 nM

target: T1, soluble human TNF-alpha; assay: cell-based or functional assay; remark: another data set of the same source

Row | Binder | Inhibition of human TNF-induced L929 cell cytotoxicity EC50
10 | B2 | 0.04 nM
11 | B3 | 0.15 nM
12 | B4 | 0.15 nM
13 | B5 | 0.1 nM
14 | B6 | 0.15 nM
15 | B7 | 4 nM
16 | B8 | 1.5 nM

target: T1, soluble human TNF-alpha; assay: competition ELISA: VHH mixed with human TNF-alpha, binding to coated etanercept (TNFR2-Fc)
Description: (§1) Variable domains were diluted and mixed with either human or cynomolgus monkey TNF-alpha (1.25 ng/ml) to allow binding before adding to the ELISA plates.

Row | Binder | EC50
17 | B2 | 0.29 nM
18 | B9 | 0.8 nM
19 | B3 | 1.3 nM
20 | B10 | 2.3 nM
21 | B4 | 0.35 nM
22 | B11 | 0.7 nM
23 | B5 | 0.37 nM
24 | B6 | 0.33 nM
25 | B12 | 30 nM
26 | B7 | 47 nM
27 | B8 | 13 nM

target: T1, soluble human TNF-alpha; assay: cell-based or functional assay; remark: another data set of the same source

Row | Binder | potency relative to the monomer, soluble TNF-induced HEK293-NF-kB-SEAP reporter assay | EC50, HEK-293 NF-kB/SEAP reporter cells, human soluble TNF-alpha
28 | B13 | ~10 fold | –
29 | B2 | – | ~0.2 nM
30 | B6 | – | ~0.6 nM

target: T2, soluble cynomolgus monkey TNF-alpha; assay: cell-based or functional assay; remark: another data set of the same source

Row | Binder | Inhibition of cynomolgus TNF-induced L929 cell cytotoxicity EC50
31 | B9 | < 0.1 nM
32 | B10 | 1.5 nM
33 | B11 | 0.8 nM
34 | B12 | 1.3 nM

target: T1, soluble human TNF-alpha; assay: cell-based or functional assay; remark: another data set of the same source

Row | Binder | Inhibition of human TNF-induced L929 cell cytotoxicity EC50
35 | B9 | 0.2 nM
36 | B10 | 6 nM
37 | B11 | 1 nM
38 | B12 | 2 nM

target: T3, non-cleavable transmembrane form of human TNF-alpha on CHO cells (mTNF-alpha-CHO) (human, UniProt P01375 1-233); assay: cell-based or functional assay
T3 sequence (P01375 whole entry): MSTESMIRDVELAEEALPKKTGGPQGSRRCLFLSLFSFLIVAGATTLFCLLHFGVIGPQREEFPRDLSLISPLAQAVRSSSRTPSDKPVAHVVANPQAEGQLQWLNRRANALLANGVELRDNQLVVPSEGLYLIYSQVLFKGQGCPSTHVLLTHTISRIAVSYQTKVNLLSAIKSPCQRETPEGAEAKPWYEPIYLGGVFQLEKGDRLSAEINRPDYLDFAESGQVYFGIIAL

Row | Binder | mTNF-alpha neutralisation EC50 (nM), NF-kB/SEAP HEK-293 cellular reporter assay
39 | B2 | 8.72 nM
40 | B1 | 5.16 nM
41 | B14 | 4.71 nM
42 | B15 | 7.69 nM

target: T3, non-cleavable transmembrane form of …; assay: cell-based or functional assay; remark: another data set of the same source

Row | Binder | Inhibition of mTNF-alpha-induced HEK-NF-kB SEAP Reporter (EC50 = nM)
43 | B9 | 80 nM
44 | B10 | 40 nM
45 | B11 | 34 nM

target: T2, soluble cynomolgus monkey TNF-alpha; assay: competition ELISA: VHH mixed with cynomolgus TNF-alpha, binding to coated etanercept (TNFR2-Fc)
Description: as §1

Row | Binder | EC50
46 | B2 | 0.45 nM
47 | B9 | 1.2 nM
48 | B3 | 1.1 nM
49 | B10 | 1.4 nM
50 | B4 | 0.32 nM
51 | B11 | 1.3 nM
52 | B5 | 0.32 nM
53 | B6 | 0.45 nM
54 | B12 | 108 nM
55 | B7 | 65 nM
56 | B8 | 24 nM

target: T1, soluble human TNF-alpha; assay: competition ELISA: VHH mixed with h-TNF-alpha, binding to coated etanercept

Row | Binder | binding result
57 | B16 | binds
58 | B17 | binds
59 | B18 | binds

target: T3, non-cleavable transmembrane form of …; assay: cell-based or functional assay; remark: another data set of the same source

Row | Binder | Inhibition of mTNF-alpha-induced HEK-NF-kB SEAP Reporter (EC50 = nM)
60 | B2 | 10.9 nM
61 | B3 | 23.9 nM
62 | B4 | 14.1 nM
63 | B5 | 15.3 nM
64 | B6 | 16 nM
65 | B7 | 174 nM
66 | B8 | 110 nM
